Several values for one entry are separate records, joined by “and”; a condition that tells them apart may be missing. Identical values can stand only once.
Assays:
[1] = target: N-terminal domain of SARS-CoV-2 nucleocapsid protein (NTD-N_(41-174)) (SARS-CoV-2) (UniProt P0DTC9); assay: ITC
[2] = target: NTD-N_(41-174) protein double mutant (WV133134AA) (SARS-CoV-2) (UniProt P0DTC9); assay: ITC
[3] = target: GFP-tagged G3BP1_(NTF-2) (G3BP1_(NTF-2)-GFP) (human, UniProt Q13283 1-139); assay: fluorescence intensity-based PPIs plate assay
[4] = target: NTF2-like domain of Ras GTPase-activating protein SH3-domain-binding protein 1 (G3BP1_(NTF-2)) (human, UniProt Q13283 1-139); assay: ITC

Molecule: NTF2-like domain of Ras GTPase-activating protein SH3-domain-binding protein 1 (G3BP1_(NTF-2)) (from UniProt Q13283 1-139) (domain or fragment)
- Kd [1]: 5.5 µM
- fold higher KD than the single mutants (V134A and W133A) [2]: 2 fold and 4 fold

B1: mutant N_(128-138) peptide 2 (KDGIIAAATEG) (peptide)
peptide: KDGIIAAATEG
- binding result [3]: binds

B2: mutant N_(128-138) peptide 3 (KAGIIAAATEG) (peptide)
peptide: KAGIIAAATEG
- binding result [3]: binds

B3: N_(128-138) peptide 1 (KDGIIWVATEG) (peptide)
peptide: KDGIIWVATEG
- Kd [4]: 11.8 µM

From doi:10.1101/2024.10.27.620470 (bioRxiv, 2024)
